Test results taken from patent US20190241662A1 (ADAGENE, published 2019).

Tests used:
[1] = target: T1, human PD1 on HEK293F cells (human, UniProt Q15116 25-288); assay: flow cytometry, transfected HEK293F cells, 100 nM antibody [Cont.]
T1 construct: whole, on cells
Description: (§1) Antibody selectivity was next examined. Human CTLA4, PD1, LAG3, Tim3, B7H3, CD95, TNFR1, OX40, CD40, PD-L1, BLTA, VISTA, PDL2, ICOS and B7H4 were transiently overexpressed on the surface of HEK293F cells. Transfected cells were washed in pre-chilled 1×PBSA buffer (1.76 mM KH2PO4, 10.14 mM Na2HPO4.12H2O, 2.68 mM KCl, 136.89 mM NaCl and 1% BSA), then incubated with 100 nM test antibodies for 1 hour on ice. Cells were washed once with staining buffer, and Alexa Fluor® 647 conjugated mouse anti-human FC antibodies were added and incubated for 30 minutes on ice, protected from light. Samples were washed once with staining buffer prior to analysis by flow cytometry.

[2] = target: T2, human Tim3 on HEK293F cells (human, UniProt Q8TDQ0 22-301); assay: as above
T2 construct: whole, on cells
T2 sequence (looked up): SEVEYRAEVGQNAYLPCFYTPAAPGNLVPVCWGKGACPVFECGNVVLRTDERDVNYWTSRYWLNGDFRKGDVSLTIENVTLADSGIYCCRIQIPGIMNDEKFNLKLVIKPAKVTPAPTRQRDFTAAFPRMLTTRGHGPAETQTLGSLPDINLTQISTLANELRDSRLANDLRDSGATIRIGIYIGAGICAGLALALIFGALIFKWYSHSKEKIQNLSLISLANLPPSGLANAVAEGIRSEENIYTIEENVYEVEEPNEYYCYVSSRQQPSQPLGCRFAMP
Description: as §1

[3] = target: T3, full-length mouse CTLA4 expressed on HEK293F cells (mouse, UniProt P09793 36-223); assay: flow cytometry, transfected HEK293F cells, antibody concentration not printed [Cont.]
T3 construct: whole, on cells
Description: (§2) The affinities of the antibodies were also assessed against human and mouse CTLA4 transiently expressed on the surface of HEK293F cells (FIG. 2). Briefly, HEK293F cells were transfected with a plasmid expressing full-length human, monkey or mouse CTLA4 from a bicistronic IRES vector also encoding EGFP, and EGFP expression was used to identify the transfected cells. After 48 hours, the mammalian cell suspension (2×10⁵/well) was transferred to an Eppendorf tube, centrifuged, the supernatant was discarded, the cells were resuspended with 1 mL PBSA (to a density is 4×10⁶ cells/mL), and added to a 96 well plate. […] The cells were then washed once prior to analysis by flow cytometry (Beckman® CytoFlex).

[4] = target: T4, full-length human CTLA4 expressed on cells (human, UniProt P16410 36-223); assay: as above
T4 construct: whole, on cells; also called HEK293F/hCTLA-4 cells; HEK293F/hCTLA4 cells
T4 sequence (looked up): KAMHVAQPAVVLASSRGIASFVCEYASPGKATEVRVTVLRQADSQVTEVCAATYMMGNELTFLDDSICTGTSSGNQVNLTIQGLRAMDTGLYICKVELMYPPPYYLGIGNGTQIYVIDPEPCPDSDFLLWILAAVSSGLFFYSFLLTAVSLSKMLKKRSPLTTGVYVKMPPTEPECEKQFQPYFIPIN
Description: as §2

[5] = target: T5, human CD40 on HEK293F cells (human, UniProt P25942 21-277); assay: flow cytometry, transfected HEK293F cells, 100 nM antibody [Cont.]
T5 construct: whole, on cells
Description: as §1

[6] = target: T6, human CD95 on HEK293F cells (human, UniProt P25445 26-335); assay: as above
T6 construct: whole, on cells
T6 sequence (looked up): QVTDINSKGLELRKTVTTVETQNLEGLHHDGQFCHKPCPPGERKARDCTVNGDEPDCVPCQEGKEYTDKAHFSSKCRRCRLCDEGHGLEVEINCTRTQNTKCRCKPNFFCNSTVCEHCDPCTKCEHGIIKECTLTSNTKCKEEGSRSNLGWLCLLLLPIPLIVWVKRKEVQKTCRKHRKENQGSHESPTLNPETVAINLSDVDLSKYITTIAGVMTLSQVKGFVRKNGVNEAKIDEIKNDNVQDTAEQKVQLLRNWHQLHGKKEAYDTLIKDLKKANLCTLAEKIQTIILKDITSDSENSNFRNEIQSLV
Description: as §1

[7] = target: T7, human TNFR1 on HEK293F cells (human, UniProt P19438 30-455); assay: as above
T7 construct: whole, on cells; also called CD120a
T7 sequence (looked up): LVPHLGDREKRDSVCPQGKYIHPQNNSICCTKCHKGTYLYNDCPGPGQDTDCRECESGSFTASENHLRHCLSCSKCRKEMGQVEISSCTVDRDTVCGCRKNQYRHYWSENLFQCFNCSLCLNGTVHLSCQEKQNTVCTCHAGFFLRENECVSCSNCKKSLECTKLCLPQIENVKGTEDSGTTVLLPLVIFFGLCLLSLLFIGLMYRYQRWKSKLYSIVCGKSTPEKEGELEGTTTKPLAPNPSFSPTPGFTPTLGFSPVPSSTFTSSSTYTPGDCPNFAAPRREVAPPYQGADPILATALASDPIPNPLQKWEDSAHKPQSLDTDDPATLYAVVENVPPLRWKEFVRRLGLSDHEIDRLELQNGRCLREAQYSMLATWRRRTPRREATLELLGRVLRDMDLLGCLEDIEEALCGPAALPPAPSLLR
Description: as §1

[8] = target: T8, human OX40 on HEK293F cells (human, UniProt P43489 29-277); assay: as above
T8 construct: whole, on cells
T8 sequence (looked up): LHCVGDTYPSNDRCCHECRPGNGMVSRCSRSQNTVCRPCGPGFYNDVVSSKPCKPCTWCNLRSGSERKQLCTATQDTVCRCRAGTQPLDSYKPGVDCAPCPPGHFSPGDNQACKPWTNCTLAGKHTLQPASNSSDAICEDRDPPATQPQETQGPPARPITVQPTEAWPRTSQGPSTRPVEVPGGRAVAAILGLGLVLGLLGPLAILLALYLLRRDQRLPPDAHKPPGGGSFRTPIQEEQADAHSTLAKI
Description: as §1

T5 sequence (P25942 21-277): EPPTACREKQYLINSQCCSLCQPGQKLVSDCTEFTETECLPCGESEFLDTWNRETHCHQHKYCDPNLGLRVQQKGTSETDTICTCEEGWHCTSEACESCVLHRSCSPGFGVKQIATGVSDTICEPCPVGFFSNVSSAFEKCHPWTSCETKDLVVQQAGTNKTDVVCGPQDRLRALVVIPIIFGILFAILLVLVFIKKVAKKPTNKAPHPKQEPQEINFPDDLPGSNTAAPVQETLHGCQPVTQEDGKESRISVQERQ
T1 sequence (Q15116 25-288): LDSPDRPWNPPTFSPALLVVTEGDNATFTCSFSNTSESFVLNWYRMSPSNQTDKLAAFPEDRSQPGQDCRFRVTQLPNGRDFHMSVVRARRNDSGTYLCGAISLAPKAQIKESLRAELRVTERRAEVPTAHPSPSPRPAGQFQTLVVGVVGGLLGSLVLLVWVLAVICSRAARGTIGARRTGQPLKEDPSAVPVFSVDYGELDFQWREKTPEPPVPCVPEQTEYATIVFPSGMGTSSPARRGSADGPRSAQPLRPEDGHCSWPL

B1: TY21687 (antibody, V domains shown)
VH: EVQLVESGGGLVQPGGSLRLSCAASGFTFSGYAIHWVRQAPGKGLEWIGIISPSGGGTKYAQKFQGRVTISRDNSKNTLYLQLNSLRAEDTAVYYCARHPFAYWGQGTLVTVSS
VL: DIQLTQSPSSLSASVGDRVTITCRASQSVDFYGISFLDWYQQKPGKAPKLLIYDASNRATGIPSRFSGSGSGTDFTLTISSLQPEDFATYYCQQYVSSPPEYTFGQGTKVEIK
notes: human IgG1 (hIgG1) from Fab hit B15700
% of cells in upper right quadrant (Q2) [1]: 5.96%
% of cells in upper right quadrant (Q2) [2]: 1.85%
% of cells in upper right quadrant (Q2) [3]: 33.4
Mean [3]: 633000
% of cells in upper right quadrant (Q2) [4]: 50.4
Mean [4]: 433000

B2: TY21585 (antibody, V domains shown)
VH: EVQLVESGGGLVQPGGSLRLSCAASGFTFSDYAIHWVRQAPGKGLEWIGIISPSSGSTNYAQKFQGRVTISRDNSKNTLYLQLNSLRAEDTAVYYCARDIHSGSSGYYYGFDVWGQGTLVTVSS
VL: DIQLTQSPSSLSASVGDRVTITCRASESVDFFGISFLAWYQQKPGKAPKLLIYDASNRATGIPSRFSGSGSGTDFTLTISSLQPEDFATYYCQHYTSSPPVYTFGQGTKVEIK
notes: human IgG1 (hIgG1) from Fab hit B15709
% of cells in upper right quadrant (Q2) [5]: 0.95
Mean [5]: 8270

B3: TY21591 (antibody, V domains shown)
VH: EVQLVESGGGLVQPGGSLRLSCAASGFSLSTGGVAVSWIRQAPGKGLEWIGEIYHSGSTYYSPSLKSRVTISRDNSKNTLYLQLNSLRAEDTAVYYCARRIATATYFDYWGQGTLVTVSS
VL: DIQLTQSPSSLSASVGDRVTITCRASQTVFSRYLAWYQQKPGKAPKLLIYDASNRATGIPSRFSGSGSGTDFTLTISSLQPEDFATYYCQQSYYWPPWTFGQGTKVEIK
notes: human IgG1 (hIgG1) from Fab hit B15756
% of cells in upper right quadrant (Q2) [6]: 0.22
Mean [6]: 5570
% of cells in upper right quadrant (Q2) [7]: 0.33
Mean [7]: 6490
% of cells in upper right quadrant (Q2) [8]: 0.42
Mean [8]: 11900
